Source: publication PMC9662066 (Emerging Microbes & Infections, 2022)

Legend:
[1] = biological target: T1, SARS-CoV-2 WT-RBD (SARS-CoV-2, UniProt P0DTC2); test: ELISA; conditions: both partners purified
T1 construct: not shown: 6-His, C-terminal, kept

[2] = biological target: T1, SARS-CoV-2 WT-RBD; test: BLI; conditions: both partners purified

Binder	binding result [1]	binding result [2]
MW01 (antibody, V domains shown) VH: EVQLVQSGAEVKKPGSSVKVSCKASGGTFSSFSISWVRQAPGQGLEWMGRIIPVLGIANYAQEVQGRVTITADKSTSTAYMELSSLRSEDTAVYFCTTDRFVEPATGPFFDYWGQGTLVTVSS VL: EIVMTQSPATLSVSPGERATLSCRASQSVSSNLAWYQQKPGQAPRLLIYGASTRATGIPARFSGSGSGTEFTLTISSLQSEDFAVYYCQQYSNWLTFGGGTKVEIK	binds	–
BD-667 (antibody, V domains shown, IgG1; IGHV3-11) VH: QVQLVESGGGLVKPGGSLRLSCAASGFRFSDYYMNWIRQAPGKGLEWISYIGSGGFATYYGDSVKGRFTVSRDDAENSLYLQMNSLRAEDTAVYYCARGVTSYSDNSGNYRTDDAFDIWGQGTMVTVSS VL: EIVMTQSPATLSVSPGERATLSCRASQSVSRNLAWYQQRPGQAPRLLIYGASTRATGVAARFTGSGFGTEFTLTISGLQSEDFAVYYCQEYNNWPPWTFGQGTKVEIK	–	binds
C548 (antibody, V domains shown, IgG1; IGHV1-69-encoded) VH: QVQLVQSGAEVKKPGSSVKVSCKASGGTFSSYAISWVRQAPGQGLEWMGGIIPIFGTANYAQKFQGRVTITADESTSTAYMELSSLRSEDTAVYYCARREAYGPRDYYYYYGMDVWGQGTTVTVSS VL: QSALTQPPSASASLGASVTLTCTLSSGYSNYKVDWYQQRPGKGPRFVMRVGTGGIVGSKGDGIPDRFSVLGSGLNRYLTIKNIQEEDESDYHCGADQGSGSNFVGVFGGGTKLTVG	–	binds
nCoV617 (antibody, V domains shown, IgG1; IGHV3-30) VH: QVQLVESGGGVVQPGRSLRLSCAASGFTFSSYAMHWVRQAPGKGLEWVALISYDGSNKYADSVKGRFTISRDNSKNTLYLQMNSLRAEDTAVYYCARGLGLRFLEWPISSYWGQGTLVTVSS VL: not shown	–	binds
A19-61.1 (antibody, V domains shown, IgG1; IGHV3-30) VH: QVQLVESGGGVVQPGRSLRLSCAASGFTFSSYAFHWVRQAPGKGLEWVAVISYDGSNQYYADSVKGRFTISRDNSKNTLYLQMNSLRADDTAVYYCARDLAIAVAGTWHYYNGMDVWGQGTTVTVSS VL: DIQMTQSPSSVSASVGDRVIITCRASQGISSWLAWYQQKPGKAPKVLIYDASSLQSGVPSRFSGSGYGTDFTLTISSLQPEDSATYYCQQAKSFPITFGQGTRLEIK	–	binds
R1-32 (antibody, V domains shown) VH: EVQLVESGAEVKKPGSSVKVSCKASGGTFSSYAISWVRQAPGQGLEWMGGIIPILGIANYAQKFQGRVTITADKSTSTAYMELSSLRSEDTAVYYCARENGYSGYGAAANFDLWGRGTLVTVSS VL: QSVLTQPPSVSGAPGQRVTISCTGSSSNIGAGYDVHWYQQLPGTAPKLLIYGNSNRPSGVPDRFSGSKSGTSASLAITGLQAEDEADYYCQSYDSSLSGSVFGGGTKLTVL	binds	–
2-15 (antibody, V domains shown, IgG1; IGHV1-2) VH: QVQLVQSGAEVKKPGASVRVSCKASGYTFTGYYMHWVRQAPGQGLEWMGWINPISDGTNYAQKFQGWVTMTRDTSISTVYMELSRLRSDDTAVYYCARGGSRCSGGNCYGWAYDAFDIWGQGTMITVSS VL: QSALTQPASVSGSPGQSITISCTGTSSDVGGYNFVSWYQQHPGKAPKLMIYDVSKRPSGVSNRFSGSKSGNTASLTISGLQAEDEADCYCSSYTSSSTFVFGTGTKVTVL	–	binds
CV07-270 (antibody, V domains shown) VH: QVQLVESGGGLVKPGGSLRLSCAASGFTFSDYYMTWIRQAPGKGLEWVSYISSSGSTIYYADSVKGRFTISRDNAKNSLYLQMNSLRAEDTAVYYCARARGSSGWYRIGTRWGNWFDPWGQGTLVTVSS VL: QSALTQPASVSGSPGQSITISCTGTSSDVGGYNYVSWYQQHPGKAPKLMIYEVSNRPSGVSNRFSGSKSGNTASLTISGLQAEDEADYYCSSYTSSSNVVFGGGTMLTVL	–	binds
LY-CoV555 (antibody, V domains shown) VH: QVQLVQSGAEVKKPGSSVKVSCKASGGTFSNYAISWVRQAPGQGLEWMGRIIPILGIANYAQKFQGRVTITADKSTSTAYMELSSLRSEDTAVYYCARGYYEARHYYYYYAMDVWGQGTAVTVSS VL: not shown	binds	–
FC08 (antibody, V domains shown) VH: QLLQQSGAEVKKPGSSVKVSCKASGGTFSSYAISWVRQAPGQGLEWMGGIIPIIGIANYAQKFQGRVTITADKSTSTAYMELSSLRSEDTAVYYCARERGYSGYGAAYYFDYWGQGTLVTVSS VL: SVLTQPPSVSGAPGQRVTISCTGSSSNIGAGYDVHWYQQLPGTAPKLLIYGNSNRPSGVPDRFSGSKSGTSASLAITGLQAEDEADYYCQSYDSSLSGSVFGGGTKLTVL	binds	–
